Consider 91 sequences from the supplement of paper PMC9112550, “Optimization of the antimicrobial peptide Bac7 by deep mutational scanning” (BMC Biology, 2022).

This series has as its system Escherichia coli TOP10. The series can be described thus: shrunken log2 fold change of peptide-encoding DNA abundance (4.5 h post-induction vs induction); higher = less antimicrobial activity (less host growth inhibition). The following applies: time post-induction: 4.5 h; library: site-saturation at positions 5, 18, 19, 20.
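Note: peptides expressed intracellularly from a pBAD plasmid library in pooled LB shake-flask culture, induced with 0.3% L-arabinose, DNA abundance read by NGS, three biological replicates, DESeq2 with apeglm shrinkage.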

With RRIRNRPPRLPRPRPRPAEHPRP, the “shrunken log2 fold change” value is -0.201. As to RRIRGRPPRLPRPRPRPHMSPRP, the “shrunken log2 fold change” value turned out to be 1.32. In the case of RRIRQRPPRLPRPRPRPWYWPRP it was -0.468; in that of RRIRGRPPRLPRPRPRPDMKPRP, 0.00543. To RRIRYRPPRLPRPRPRPYGWPRP belongs -0.187; to RRIRYRPPRLPRPRPRPREVPRP, 0.00495; to RRIRQRPPRLPRPRPRPFAQPRP, -0.0906.

Turning to RRIRIRPPRLPRPRPRPATMPRP, the “shrunken log2 fold change” value is -0.0977.

In the case of RRIRDRPPRLPRPRPRPLTMPRP, the “shrunken log2 fold change” value amounted to 0.188. On to RRIRERPPRLPRPRPRPKKGPRP, for which the “shrunken log2 fold change” value was -0.438. Turning to RRIRCRPPRLPRPRPRPKDHPRP, the “shrunken log2 fold change” value came to 0.0424.

Turning to RRIRLRPPRLPRPRPRPENHPRP, the “shrunken log2 fold change” value is -0.126. On to RRIRRRPPRLPRPRPRPIGNPRP, for which the “shrunken log2 fold change” value stood at 0.0912.

With RRIRARPPRLPRPRPRPRQSPRP, the “shrunken log2 fold change” value amounted to 0.233.

For RRIRMRPPRLPRPRPRPPWRPRP, the “shrunken log2 fold change” value was 1.34.

RRIRNRPPRLPRPRPRPAQNPRP: the “shrunken log2 fold change” value stood at 0.861. To RRIRIRPPRLPRPRPRPKWRPRP belongs 0.188. To RRIRQRPPRLPRPRPRPAAFPRP belongs 0.39; to RRIRKRPPRLPRPRPRPIQHPRP, -0.311; to RRIRLRPPRLPRPRPRPNPDPRP, 0.0991. RRIRNRPPRLPRPRPRPSMSPRP: the “shrunken log2 fold change” value is -0.222. In the case of RRIRYRPPRLPRPRPRPEYNPRP it was -0.15.

In the case of RRIRTRPPRLPRPRPRPTIAPRP, the “shrunken log2 fold change” value is -0.372. In the case of RRIRWRPPRLPRPRPRPLVIPRP it was -0.0698; in that of RRIRSRPPRLPRPRPRPFYVPRP, -0.546.

With RRIRCRPPRLPRPRPRPNVKPRP, the “shrunken log2 fold change” value was -0.482. In the case of RRIRQRPPRLPRPRPRPAPAPRP it was 0.707. To RRIRRRPPRLPRPRPRPPTCPRP belongs 0.474; to RRIRIRPPRLPRPRPRPTTSPRP, -0.0703; to RRIRWRPPRLPRPRPRPRFEPRP, 0.225. As to RRIRYRPPRLPRPRPRPMTHPRP, the “shrunken log2 fold change” value is -0.348. In the case of RRIRTRPPRLPRPRPRPKYFPRP it was -0.444.

For the sequence RRIRFRPPRLPRPRPRPLEAPRP, the “shrunken log2 fold change” value worked out at 0.0974. To RRIRYRPPRLPRPRPRPLGTPRP belongs -0.227; to RRIRIRPPRLPRPRPRPLNAPRP, -0.107; to RRIRPRPPRLPRPRPRPDITPRP, -0.783. In the case of RRIRMRPPRLPRPRPRPEYQPRP it was 0.0424; in that of RRIRKRPPRLPRPRPRPFTWPRP, 1.37; in that of RRIRVRPPRLPRPRPRPGSLPRP, -0.363. In the case of RRIRWRPPRLPRPRPRPTHFPRP it was -0.478; in that of RRIRDRPPRLPRPRPRPNRIPRP, -0.152; in that of RRIRCRPPRLPRPRPRPQYYPRP, -0.977. For the sequence RRIRLRPPRLPRPRPRPRPVPRP, the “shrunken log2 fold change” value turned out to be 0.637. For the sequence RRIRDRPPRLPRPRPRPLGGPRP, the “shrunken log2 fold change” value was 0.461.

Turning to RRIRDRPPRLPRPRPRPDPHPRP, the “shrunken log2 fold change” value was 0.0248. To RRIRKRPPRLPRPRPRPLHTPRP belongs -0.368; to RRIRCRPPRLPRPRPRPSNQPRP, -0.414; to RRIRTRPPRLPRPRPRPHQTPRP, -0.0425. On to RRIRCRPPRLPRPRPRPFGFPRP, for which the “shrunken log2 fold change” value was -0.388. In the case of RRIRKRPPRLPRPRPRPDGFPRP it was 0.0522; in that of RRIRSRPPRLPRPRPRPIREPRP, -0.0902. In the case of RRIRARPPRLPRPRPRPRYGPRP it was -0.0744; in that of RRIRCRPPRLPRPRPRPGQNPRP, 0.261; in that of RRIRKRPPRLPRPRPRPRVWPRP, 0.809. To RRIRPRPPRLPRPRPRPSCEPRP belongs -0.386; to RRIRQRPPRLPRPRPRPWAEPRP, -0.0482; to RRIRTRPPRLPRPRPRPWGAPRP, 0.211. Turning to RRIRARPPRLPRPRPRPKPNPRP, the “shrunken log2 fold change” value was 0.736. As for RRIRWRPPRLPRPRPRPYCCPRP, the “shrunken log2 fold change” value is -0.569. In the case of RRIRGRPPRLPRPRPRPSYDPRP, the “shrunken log2 fold change” value is -0.0196. As to RRIRYRPPRLPRPRPRPFCDPRP, the “shrunken log2 fold change” value was -0.208. For the sequence RRIRHRPPRLPRPRPRPTDQPRP, the “shrunken log2 fold change” value was -0.00155. In the case of RRIRHRPPRLPRPRPRPLFCPRP it was -0.604; in that of RRIRSRPPRLPRPRPRPHCPPRP, -0.0154.

For RRIRQRPPRLPRPRPRPESRPRP, the “shrunken log2 fold change” value was -0.00904.

Take RRIRRRPPRLPRPRPRPEHLPRP: the “shrunken log2 fold change” value is 0.242. In the case of RRIRKRPPRLPRPRPRPMCIPRP it was -0.00174; in that of RRIRFRPPRLPRPRPRPTEIPRP, -0.413. In the case of RRIRVRPPRLPRPRPRPHQIPRP it was 0.12; in that of RRIRTRPPRLPRPRPRPQELPRP, 0.0724.

For the sequence RRIRWRPPRLPRPRPRPWRVPRP, the “shrunken log2 fold change” value is -0.245. To RRIRKRPPRLPRPRPRPKPGPRP belongs 1.2; to RRIRERPPRLPRPRPRPNLEPRP, -0.228.

As to RRIRFRPPRLPRPRPRPRYDPRP, the “shrunken log2 fold change” value is -0.408.

In the case of RRIRHRPPRLPRPRPRPTIMPRP, the “shrunken log2 fold change” value was -0.362. As for RRIRKRPPRLPRPRPRPLPIPRP, the “shrunken log2 fold change” value was 0.143. As for RRIRGRPPRLPRPRPRPIEEPRP, the “shrunken log2 fold change” value amounted to 0.235. In the case of RRIRYRPPRLPRPRPRPWPRPRP it was 0.209; in that of RRIRQRPPRLPRPRPRPIFWPRP, 0.142. In the case of RRIRMRPPRLPRPRPRPKHRPRP it was 0.229; in that of RRIRERPPRLPRPRPRPSCFPRP, -0.322; in that of RRIRYRPPRLPRPRPRPPYTPRP, -0.94.

As for RRIRIRPPRLPRPRPRPWADPRP, the “shrunken log2 fold change” value was -0.435. For the sequence RRIRARPPRLPRPRPRPRIMPRP, the “shrunken log2 fold change” value is 0.121. In the case of RRIRMRPPRLPRPRPRPLNGPRP it was -0.00843; in that of RRIRDRPPRLPRPRPRPNASPRP, 0.527; in that of RRIRCRPPRLPRPRPRPITMPRP, -0.309. For the sequence RRIRQRPPRLPRPRPRPCQDPRP, the “shrunken log2 fold change” value amounted to 0.0207. In the case of RRIRSRPPRLPRPRPRPFQGPRP it was -0.0569; in that of RRIRFRPPRLPRPRPRPCVWPRP, 0.0426. With RRIRMRPPRLPRPRPRPCFFPRP, the “shrunken log2 fold change” value was 0.16.
